Results published in patent publication US20220098591, “STEM-LOOP COMPOSITIONS AND METHODS FOR INHIBITING VASCULAR ENDOTHELIAL GROWTN FACTOR” (DRIVE THERAPEUTICS LLC, published 2022).
Positions count from the first letter of the chain named.

B1: Aptamer 160 (ssRNA)
RNA: AGGCCGCCUCCGCGUGGAGGGGUUUCAUUAUCCCGUUUGGCGGCUU
modifications: all G 2'-F; A,C,U 2'-OMe; 5' C6NH2; 3' idT
B2: Aptamer 161 (ssRNA)
RNA: B1 RNA with U15C, A18C
modifications: all G 2'-F; A,C,U 2'-OMe; 5' C6NH2; 3' idT
B3: Aptamer 166 (ssRNA)
RNA: B1 RNA with U15C, U36C
modifications: all G 2'-F; A,C,U 2'-OMe; 5' C6NH2; 3' idT
B4: Aptamer 157 (ssRNA)
RNA: B1 RNA with G14U, U15C
modifications: all G 2'-F; A,C,U 2'-OMe; 5' C6NH2; 3' idT
B5: Aptamer 158 (ssRNA)
RNA: B1 RNA with U15A
modifications: all G 2'-F; A,C,U 2'-OMe; 5' C6NH2; 3' idT
B6: Aptamer 196 (ssRNA)
RNA: AGGCCGACCCGCGCGGAGGGGUUUCAUUAUCCCGUUUGUCGGCUU
modifications: G 2'-F except G22 2'-OMe; A,C,U 2'-OMe; Sp3 joins the two parts; 5' C6NH2; 3' idT
B7: Aptamer 198 (ssRNA)
RNA: B6 RNA
modifications: G 2'-F except G39 2'-OMe; A,C,U 2'-OMe; Sp3 joins the two parts; 5' C6NH2; 3' idT
B8: Aptamer 199 (ssRNA)
RNA: GCCGACCCGCGCGGAGGGGUUUCAUUACCCCGUUUGUCGGC
modifications: all G 2'-F; A,C,U 2'-OMe; Sp3 joins the two parts; 5' C6NH2; 3' idT
B9: Aptamer 30 (ssRNA)
RNA: UAGGCCGCCUCCGCGCGGAGGGGUUUCAUUUAUCCCGUUUGGCGGCUUU
modifications: 2'-F G; 2'-OMe A,C,U; 5' C6NH2; 3' idT
B10: Aptamer 31 (ssRNA)
RNA: UAGACCGCCUCCGCGCGGAGGGGUUUCAUUAUCCCGUUUGGCGGCUUU
modifications: 2'-F G; 2'-OMe A,C,U; 5' C6NH2; 3' idT
B11: Aptamer 32 (ssRNA)
RNA: B10 RNA with A4G, U46C
modifications: 2'-F G; 2'-OMe A,C,U; 5' C6NH2; 3' idT
B12: Aptamer 29 (ssRNA)
RNA: B10 RNA with A4U
modifications: 2'-F G; 2'-OMe A,C,U; 5' C6NH2; 3' idT
B13: Aptamer 276 (ssRNA)
RNA: ACCCGCGCGGAGGGGUUUCAUUAUCCCGUUUGU
modifications: G 2'-F except 2'-OMe-G as X in AC-Sp3-CCGCGCGGAGGGXUUUCAUUAUCCCGUUUGU; A,C,U 2'-OMe; Sp3 joins the two parts; 5' C6NH2; 3' idT
B14: Aptamer 63 (ssRNA)
RNA: AGGCCGCCUCCGCGCGGAGGGGUUCAUUAUCCCGUUUGGCGGCUU
modifications: all G 2'-F; A,C,U 2'-OMe; Sp3 joins the two parts; 5' C6NH2; 3' idT
B15: Aptamer 68 (ssRNA)
RNA: B14 RNA with C25U, A26C, U27A, A29U
modifications: all G 2'-F; A,C,U 2'-OMe; Sp3 joins the two parts; 5' C6NH2; 3' idT
B16: Aptamer 66 (ssRNA)
RNA: B14 RNA with C25U, A26C, U27A
modifications: all G 2'-F; A,C,U 2'-OMe; Sp3 joins the two parts; 5' C6NH2; 3' idT
B17: Aptamer 65 (ssRNA)
RNA: B14 RNA with C25U, A26C
modifications: all G 2'-F; A,C,U 2'-OMe; Sp3 joins the two parts; 5' C6NH2; 3' idT
B18: Aptamer 67 (ssRNA)
RNA: B14 RNA with C25U, A26C, U27A
modifications: all G 2'-F; A,C,U 2'-OMe; Sp3 joins the two parts; 5' C6NH2; 3' idT
B19: Aptamer 285 (ssRNA)
RNA: CGACCCGCGCGGAGGGGUUUCAUAAUCCCGUUUGUCG
modifications: G 2'-F except 2'-OMe-G as X in CXAC-Sp3-CCGCGCGGAGGGXUUUCAUAAUCCCGUUUXUCX; A,C,U 2'-OMe; Sp3 joins the two parts; 5' C6NH2; 3' idT

These binders were tested against T1, VEGF-A121 (Homo sapiens, UniProt P15692 SEQ:1-121) (assay: competition; TR-FRET). Conditions: tags: glycan-biotinylated for SPR/FRET/AlphaLISA; Acro BioSystems, Biolegend; chain copies: 2 (stated).
Protocol: (§1) Briefly, for competition TR-FRET, 2-fold dilutions of thermally equilibrated aptamers were made in TR-FRET Buffer (50 mM MOPS, pH 7.4, 125 mM NaCl, 5 mM KCl, 50 μM CHAPS, 0.1 mg/mL BSA, 1 mM CaCl₂, and 1 mM MgCl₂). 5 μL of aptamer or control solution was added to a 15 μL mix of glycan biotinylated […] (5 nM final), ALEXA FLUOR® 647-labeled Aptamer (30 nM final), and Streptavidin-Eu (Perkin Elmer; 2.5 nM final) in a black wall low volume 384 well plate (Greiner). For control, 5 μl of 1000-fold excess of unlabeled parent aptamer or 5 μl TR-FRET buffer alone was added to the mix of ALEXA FLUOR® 647-labeled aptamer, biotin-VEGF-A, and Streptavidin-Eu. The plate was covered with a plate seal and subsequently incubated in the dark for 1 hour at room temperature. The plate was read on a Biotek CYTATION™ 5 plate reader. Samples were excited at 330 nm and fluorescent values were collected at 665 nm. Data analysis was performed by subtracting the background value and plotting as percent inhibition, normalized to baseline in the absence of competitor. The values were fit by [Inhibitor] vs. response-Variable slope (four parameters) using GraphPad Prism Version 7.0 and then normalized to aptamer control to obtain an IC₅₀ relative to parent aptamer. Data is presented as log values of relative IC₅₀.
Activity of each of these variants were tested using a time resolved competition TR-FRET assay, as described in Example 7, in which a labeled parent was competed with increasing concentrations of unlabeled variants for binding to VEGF-A₁₂₁.

| Binder | binding signal | binding result |
| --- | --- | --- |
| B1 | > 100 fold worse IC50 vs Aptamer 26 | – |
| B2 | > 100 fold worse IC50 vs Aptamer 26 | – |
| B3 | – | binds |
| B4 | > 100 fold worse IC50 vs Aptamer 26 | – |
| B5 | > 100 fold worse IC50 vs Aptamer 26 | – |

Target: T1, VEGF-A121
Experiment: competition; TR-FRET
Conditions: tags: glycan-biotinylated for SPR/FRET/AlphaLISA; Acro BioSystems, Biolegend; chain copies: 2 (stated)
Remark: another data set of the same source
Protocol: as §1
Starting at position 6, 2′F-G residues were systematically replaced, one at a time, and the activity of the resultant molecule was assessed by competition TR-FRET, as described in Example 7, against the parent molecule, Aptamer 141.

| Binder | binding signal |
| --- | --- |
| B6 | ~2 fold better IC50 vs Aptamer 141 |
| B7 | ~2 fold better IC50 vs Aptamer 141 |
| B8 | ~2 fold better IC50 vs Aptamer 141 |

Each binder was assayed against T1, VEGF-A121 (assay: cell_activity; KDR phosphorylation in HEK293-KDR). Conditions: tags: glycan biotinylated in TR-FRET; Biolegend in the cell assay; chain copies: 2.
Protocol: Briefly, HEK293 cells engineered to stably overexpress KDR were plated overnight in collagen coated 96 well plates at 50 k cells/well. Aptamers in SB1+ (40 mM HEPES, pH 7.5, 125 mM NaCl, 5 mM KCl, 1 mM MgCl₂) were heated to 90° C. for 3 minutes and allowed to cool to room temperature for a minimum of 10 minutes. […] 15 μL of VEGF-A was added to 15 μL titrated aptamer in a polypropylene plate and diluted to 300 μL with TS buffer (10 mM Tris pH 7.5; 100 mM NaCl; 5.7 mM KCl; 1 mM MgCl₂; 1 mM CaCl₂). The aptamer/VEGF-A mixture was incubated at 37° C. for 30 minutes, after which 100 μL was added to the cells for 5 minutes at 37° C. in 5% CO₂. Treatments were aspirated from cells, and cells were lysed with 100 μL cold lysis buffer [20 mM Tris-HCl, pH 7.5, 150 mM NaCl, 1 mM EDTA, 1% Triton X-100, 0.5 mM sodium orthovanadate (freshly prepared), 1 mM PMSF (freshly prepared), lx protease inhibitor cocktail (freshly prepared)] on ice for 10 minutes. Plates were centrifuged at 4000×g for 10 minutes before transferring the cell lysis to the AlphaLISA® assay plate.
To perform the AlphaLISA® assay, 10 μL of cell lysis was transferred to a white low volume 384 well Optiplate (Perkin Elmer). […] 10 μL of this reagent mixture was added to the assay plate that contained 10 μL of cell lysate. The assay plate was sealed and incubated in the dark for approximately 2 hours, then was read on a Biotek CYTATION™ 5 plate reader using the Alpha 384 well optical cube. Percent inhibition was calculated by subtracting TS buffer background from each value and normalizing to VEGF-A only controls. The values were fit by using a four-parameter non-linear fit in GraphPad Prism Version 7.0.

| Binder | activity [% inhibition at 100 nM] |
| --- | --- |
| B9 | > 50 |
| B10 | > 50 |
| B11 | > 50 |
| B12 | > 50 |

Target: T1, VEGF-A121
Experiment: competition; TR-FRET
Conditions: tags: glycan-biotinylated for SPR/FRET/AlphaLISA; Acro BioSystems, Biolegend; chain copies: 2 (stated)
Remark: another data set of the same source
Protocol: as §1

| Binder | binding signal | binding result |
| --- | --- | --- |
| B13 | > 100 fold worse IC50 vs Aptamer 141 | – |
| B14 | – | binds |
| B15 | > 100 fold worse IC50 vs Aptamer 26 | – |
| B16 | – | binds |
| B17 | – | binds |
| B18 | – | binds |
| B19 | ~10 fold better IC50 vs Aptamer 141 | – |
